We go through eight molecules from US20200339678A1 (RIGEL PHARMACEUTICALS, published 2020).

Assay [1] has as its target T1, human TIGIT fused to a beta galactosidase portion, on YTS cells (YTS_hTIGIT/hGrb2) (human, UniProt Q495A1 22-244).
T1 sequence (looked up): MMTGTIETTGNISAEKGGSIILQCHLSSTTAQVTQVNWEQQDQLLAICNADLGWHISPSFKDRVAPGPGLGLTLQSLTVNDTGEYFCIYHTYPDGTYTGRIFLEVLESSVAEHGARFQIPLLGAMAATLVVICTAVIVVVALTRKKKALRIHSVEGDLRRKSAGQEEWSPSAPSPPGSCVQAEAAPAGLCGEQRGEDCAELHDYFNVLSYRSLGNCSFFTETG
In words: cell-based or functional assay.

A further assay has as its target T2, biotinylated human TIGIT (human, UniProt Q495A1 22-141, biotinylated (EZ-Link NHS-PEG4-biotin kit)).
T2 construct: extracellular domain; also called TIGIT-ECD
T2 sequence (looked up): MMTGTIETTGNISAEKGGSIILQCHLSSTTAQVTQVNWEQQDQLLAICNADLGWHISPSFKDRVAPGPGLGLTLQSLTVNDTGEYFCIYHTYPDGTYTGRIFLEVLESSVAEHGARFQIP
In words: comp. ELISA vs PVR. On the procedure: (§1) Antibodies were serially diluted in a 10-point curve starting at 1 μM in 3-fold steps. […] Units are in microM.

Another assay concerns the target T3, mouse TIGIT-Fc (mouse, UniProt P86176 29-148).
T3 construct: extracellular domain; also called TIGIT-ECD; not shown: Fc
T3 sequence (looked up): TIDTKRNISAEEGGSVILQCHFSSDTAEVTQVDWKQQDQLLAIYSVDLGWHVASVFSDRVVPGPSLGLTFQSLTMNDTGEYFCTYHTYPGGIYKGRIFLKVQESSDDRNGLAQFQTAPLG
Briefly: comp. ELISA vs PVR. The protocol:
as §1
A general note: An ELISA detects its analyte on a solid surface through an enzyme-linked reagent.

Assay [2] addresses T4, His-tagged recombinant Human TIGIT (human, UniProt Q495A1 22-141).
T4 construct: coated antigen of the direct ELISA; not shown: His tag
T4 sequence (looked up): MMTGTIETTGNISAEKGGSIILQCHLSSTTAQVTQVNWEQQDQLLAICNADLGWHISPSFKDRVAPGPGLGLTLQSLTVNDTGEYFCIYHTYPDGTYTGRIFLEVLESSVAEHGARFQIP
Briefly: ELISA. On the procedure:
(§2) Binding affinities for antigen binding to anti-TIGIT monoclonal antibodies were determined by ELISA. […] Antibodies to be tested were diluted to 1 μM in PBS buffer containing 1% BSA and diluted 3-fold in a 10-point curve. […] Detection of the secondary antibody was determined using streptavidin-HRP and TMB reagent. All assays were performed at room temperature. Curve-fitting software was used to determine the EC₅₀ for each antibody.

The target in assay [3] is T5, His-tagged recombinant Mouse TIGIT (mouse, UniProt P86176 29-148, limits assumed).
T5 construct: coated antigen of the direct ELISA; not shown: His tag
T5 sequence (looked up): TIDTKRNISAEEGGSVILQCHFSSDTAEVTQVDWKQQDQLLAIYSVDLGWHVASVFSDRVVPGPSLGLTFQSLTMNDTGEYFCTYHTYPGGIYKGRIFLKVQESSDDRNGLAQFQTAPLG
Briefly: ELISA. The protocol:
as §2

B1: Ab40i4 (antibody, V domains shown)
VH: EVQLLESGGGLVQPGGSLRLSCAASGFTFSSYSMNWVRQAPGKGLEWVAGIKSSSGNKYYADSVKGRFTISRDNSKNTLYLQMNSLRAEDTAVYYCARGPYDVWMDYWGQGTLVTVSS
VL: not shown
The term IC50 denotes the point on the concentration scale where inhibition reaches its midpoint. By EC50 is commonly meant the midpoint of the concentration-response curve. As for B1, the “YTS_hTIGI/hGrbs_EFC_Agonism, 221_WT” value in assay [1] came to 0.0007 µM. Besides, the “YTS_hTIGI/hGrbs_EFC_Antagonism, 221_hPVR/ICAM” value in assay [1] amounted to 1.63 µM. Further, the IC50 with biotinylated human TIGIT came to 3 nM; with mouse TIGIT-Fc it was 11.1 nM. The results for the EC50 in assay [2] and in assay [3] were 0.3 nM and 2.5 nM, respectively.

B2: Ab10i2 (antibody, V domains shown)
VH: EVQLLESGGGLVQPGGSLRLSCAASGFTFSSYSMNWVRQAPGKGLEWVAYIKSNSGTKGYADSVKGRFTISRDNSKNTLYLQMNSLRAEDTAVYYCARGPYDYWLDYWGQGTLVTVSS
VL: not shown
notes: hIgG1 of Ab10
As to B2, the “YTS_hTIGI/hGrbs_EFC_Antagonism, 221_hPVR/ICAM” value in assay [1] is 0.39 µM. Moreover, the values for the IC50 with biotinylated human TIGIT and in the assay with mouse TIGIT-Fc were 8.5 nM and 1.1 nM, respectively. Further, the EC50 in assay [2] was 0.3 nM; in assay [3], 0.1 nM.

B3: Ab15i2 (antibody, V domains shown)
VH: EVQLLESGGGLVQPGGSLRLSCAASGFTFSSYSMHWVRQAPGKGLEWVASIWSNSGNTGYADSVKGRFTISRDNSKNTLYLQMNSLRAEDTAVYYCARVPYDYWMDYWGQGTLVTVSS
VL: not shown
notes: mIgG2a of Ab15
B3: in assay [1], the “YTS_hTIGI/hGrbs_EFC_Agonism, 221_WT” value is greater than 1 µM. For the same molecule, the “YTS_hTIGI/hGrbs_EFC_Antagonism, 221_hPVR/ICAM” value in assay [1] was found to be 0.275 µM. The IC50 with biotinylated human TIGIT is 10.9 nM; with mouse TIGIT-Fc, 1.6 nM. The concentration giving a half-maximal response (EC50) worked out at 21.6 nM in assay [2] and 2.7 nM in assay [3].

B4: Ab22i2 (antibody, V domains shown)
VH: EVQLLESGGGLVQPGGSLRLSCAASGFTFSSYSMHWVRQAPGKGLEWVASIKSSGGSKYYADSVKGRFTISRDNSKNTLYLQMNSLRAEDTAVYYCARVPYDYWMDYWGQGTLVTVSS
VL: not shown
notes: mIgG2a of Ab22
Turning to B4, in assay [1], the “YTS_hTIGI/hGrbs_EFC_Agonism, 221_WT” value is greater than 1 µM. Also, the “YTS_hTIGI/hGrbs_EFC_Antagonism, 221_hPVR/ICAM” value in assay [1] was greater than 1 µM. For the same molecule, the IC50 with biotinylated human TIGIT turned out to be 38.3 nM; with mouse TIGIT-Fc, 2.6 nM. The EC50 turned out to be 1.8 nM in assay [2] and 0.2 nM in assay [3].

B5: Ab22i1 (antibody, V domains shown)
VH: EVQLLESGGGLVQPGGSLRLSCAASGFTFSSYSMHWVRQAPGKGLEWVASIKSSGGSKYYADSVKGRFTISRDNSKNTLYLQMNSLRAEDTAVYYCARVPYDYWMDYWGQGTLVTVSS
VL: not shown
notes: hIgG1 of Ab22
As for B5, the “YTS_hTIGI/hGrbs_EFC_Antagonism, 221_hPVR/ICAM” value in assay [1] came out at 0.16 µM. In addition, the values for the IC50 with biotinylated human TIGIT and with mouse TIGIT-Fc were 1.5 nM and 0.5 nM, respectively. Besides, the values for the EC50 in assay [2] and in assay [3] were 0.7 nM and 0.3 nM, respectively.

B6: Ab15i1 (antibody, V domains shown)
VH: EVQLLESGGGLVQPGGSLRLSCAASGFTFSSYSMHWVRQAPGKGLEWVASIWSNSGNTGYADSVKGRFTISRDNSKNTLYLQMNSLRAEDTAVYYCARVPYDYWMDYWGQGTLVTVSS
VL: not shown
notes: hIgG1 of Ab15
In the case of B6, the “YTS_hTIGI/hGrbs_EFC_Agonism, 221_WT” value in assay [1] is greater than 1 µM. Besides, the “YTS_hTIGI/hGrbs_EFC_Antagonism, 221_hPVR/ICAM” value in assay [1] was greater than 1 µM. The IC50 turned out to be 2.2 nM with biotinylated human TIGIT and 1.2 nM with mouse TIGIT-Fc. The values for the EC50 in assay [2] and in assay [3] were 4.8 nM and 2.3 nM, respectively.

B7: Ab28i1 (antibody, V domains shown)
VH: EVQLLESGGGLVQPGGSLRLSCAASGFTFSSYSMHWVRQAPGKGLEWVANINSNGGNTGYADSVKGRFTISRDNSKNTLYLQMNSLRAEDTAVYYCARVPYDVWMDYWGQGTLVTVSS
VL: not shown
notes: hIgG1 of Ab28
For B7, in assay [1], the “YTS_hTIGI/hGrbs_EFC_Antagonism, 221_hPVR/ICAM” value amounted to 0.0758 µM. Also, the IC50 with biotinylated human TIGIT stood at 1.2 nM; with mouse TIGIT-Fc, 1.3 nM. In addition, the figures for the EC50 in assay [2] and in assay [3] were 0.4 nM and 2.7 nM, respectively.

B8: Ab1i10 (antibody, V domains shown)
VH: EVQLLESGGGLVQPGGSLRLSCAASGFTFSSYAMHWVRQAPGKGLEWVSGISSNGGSTSYADSVKGRFTISRDNSKNTLYLQMNSLRAEDTAVYYCARVPYSAWIDYWGQGTLVTVSS
VL: not shown
notes: mIgG2a of Ab1, V99A
Turning to B8, the IC50 with biotinylated human TIGIT was 5.8 nM; in the assay with mouse TIGIT-Fc it was 488 nM. Besides, the EC50 in assay [2] stood at 3.9 nM; in assay [3], 15.1 nM.
